# Square brackets hold non-standard residues; d marks the D form. Ends that are not written are not given here. Aib = CC(C)(N)C(=O)O
# T1: human glucose-dependent insulinotropic peptide receptor (human, UniProt P48546)
# T1 sequence: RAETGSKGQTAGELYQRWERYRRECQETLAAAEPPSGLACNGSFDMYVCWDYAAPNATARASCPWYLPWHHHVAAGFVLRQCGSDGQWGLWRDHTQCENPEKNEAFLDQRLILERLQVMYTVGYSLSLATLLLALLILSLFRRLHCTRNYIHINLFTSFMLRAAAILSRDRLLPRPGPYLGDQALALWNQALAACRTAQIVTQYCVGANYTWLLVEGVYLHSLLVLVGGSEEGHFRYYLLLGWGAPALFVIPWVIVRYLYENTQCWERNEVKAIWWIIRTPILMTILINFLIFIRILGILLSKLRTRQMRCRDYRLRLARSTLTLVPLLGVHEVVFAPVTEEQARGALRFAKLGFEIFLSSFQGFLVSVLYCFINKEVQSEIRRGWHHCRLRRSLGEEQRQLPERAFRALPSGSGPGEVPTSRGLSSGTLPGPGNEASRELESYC
# How the values were obtained:
# [1] = molecular target: human glucagon-like peptide-1 receptor (human, UniProt P43220); assay: cell-based or functional assay
# [2] = molecular target: T1, human glucose-dependent insulinotropic …; assay: cell-based or functional assay
Binder,"Activity for human GLP-1R (EC50 nM), cAMP HTRF [1] [nM]","Activity for human GIPR (EC50 nM), cAMP HTRF [2] [nM]"
Y[Aib]EGTFTSDYSIYLD[Aib]IAAQEFVQWLLAGGPSSGAPPPSK-NH2 (N-terminus assumed; SMILES CC[C@H](C)[C@H](NC(=O)[C@H](CO)NC(=O)[C@H](Cc1ccc(O)cc1)NC(=O)[C@H](CC(=O)O)NC(=O)[C@H](CO)NC(=O)[C@@H](NC(=O)[C@H](Cc1ccccc1)NC(=O)[C@@H](NC(=O)CNC(=O)[C@H](CCC(=O)O)NC(=O)C(C)(C)NC(=O)[C@@H](N)Cc1ccc(O)cc1)[C@@H](C)O)[C@@H](C)O)C(=O)N[C@@H](Cc1ccc(O)cc1)C(=O)N[C@@H](CC(C)C)C(=O)N[C@@H](CC(=O)O)C(=O)NC(C)(C)C(=O)N[C@H](C(=O)N[C@@H](C)C(=O)N[C@@H](C)C(=O)N[C@@H](CCC(N)=O)C(=O)N[C@@H](CCC(=O)O)C(=O)N[C@@H](Cc1ccccc1)C(=O)N[C@H](C(=O)N[C@@H](CCC(N)=O)C(=O)N[C@@H](Cc1c[nH]c2ccccc12)C(=O)N[C@@H](CC(C)C)C(=O)N[C@@H](CC(C)C)C(=O)N[C@@H](C)C(=O)NCC(=O)NCC(=O)N1CCC[C@H]1C(=O)N[C@@H](CO)C(=O)N[C@@H](CO)C(=O)NCC(=O)N[C@@H](C)C(=O)N1CCC[C@H]1C(=O)N1CCC[C@H]1C(=O)N1CCC[C@H]1C(=O)N[C@@H](CO)C(=O)N[C@@H](CCCCN)C(N)=O)C(C)C)[C@@H](C)CC) [Compound No. 22],0.051,0.018
Y[Aib]EGTFTSDYSIYLDKIAAQEFVNWLLAGGPSSGAPPPSK-NH2 (N-terminus assumed; SMILES CC[C@H](C)[C@H](NC(=O)[C@H](CCCCN)NC(=O)[C@H](CC(=O)O)NC(=O)[C@H](CC(C)C)NC(=O)[C@H](Cc1ccc(O)cc1)NC(=O)[C@@H](NC(=O)[C@H](CO)NC(=O)[C@H](Cc1ccc(O)cc1)NC(=O)[C@H](CC(=O)O)NC(=O)[C@H](CO)NC(=O)[C@@H](NC(=O)[C@H](Cc1ccccc1)NC(=O)[C@@H](NC(=O)CNC(=O)[C@H](CCC(=O)O)NC(=O)C(C)(C)NC(=O)[C@@H](N)Cc1ccc(O)cc1)[C@@H](C)O)[C@@H](C)O)[C@@H](C)CC)C(=O)N[C@@H](C)C(=O)N[C@@H](C)C(=O)N[C@@H](CCC(N)=O)C(=O)N[C@@H](CCC(=O)O)C(=O)N[C@@H](Cc1ccccc1)C(=O)N[C@H](C(=O)N[C@@H](CC(N)=O)C(=O)N[C@@H](Cc1c[nH]c2ccccc12)C(=O)N[C@@H](CC(C)C)C(=O)N[C@@H](CC(C)C)C(=O)N[C@@H](C)C(=O)NCC(=O)NCC(=O)N1CCC[C@H]1C(=O)N[C@@H](CO)C(=O)N[C@@H](CO)C(=O)NCC(=O)N[C@@H](C)C(=O)N1CCC[C@H]1C(=O)N1CCC[C@H]1C(=O)N1CCC[C@H]1C(=O)N[C@@H](CO)C(=O)N[C@@H](CCCCN)C(N)=O)C(C)C) [Compound No. 20],0.027,0.008
H[Aib]EGTFTSDVSSYLEEEAAKEFIAWLVRGGPSSGAPPPSK-NH2 (N-terminus assumed; SMILES CC[C@H](C)[C@H](NC(=O)[C@H](Cc1ccccc1)NC(=O)[C@H](CCC(=O)O)NC(=O)[C@H](CCCCN)NC(=O)[C@H](C)NC(=O)[C@H](C)NC(=O)[C@H](CCC(=O)O)NC(=O)[C@H](CCC(=O)O)NC(=O)[C@H](CCC(=O)O)NC(=O)[C@H](CC(C)C)NC(=O)[C@H](Cc1ccc(O)cc1)NC(=O)[C@H](CO)NC(=O)[C@H](CO)NC(=O)[C@@H](NC(=O)[C@H](CC(=O)O)NC(=O)[C@H](CO)NC(=O)[C@@H](NC(=O)[C@H](Cc1ccccc1)NC(=O)[C@@H](NC(=O)CNC(=O)[C@H](CCC(=O)O)NC(=O)C(C)(C)NC(=O)[C@@H](N)Cc1c[nH]cn1)[C@@H](C)O)[C@@H](C)O)C(C)C)C(=O)N[C@@H](C)C(=O)N[C@@H](Cc1c[nH]c2ccccc12)C(=O)N[C@@H](CC(C)C)C(=O)N[C@H](C(=O)N[C@@H](CCCNC(=N)N)C(=O)NCC(=O)NCC(=O)N1CCC[C@H]1C(=O)N[C@@H](CO)C(=O)N[C@@H](CO)C(=O)NCC(=O)N[C@@H](C)C(=O)N1CCC[C@H]1C(=O)N1CCC[C@H]1C(=O)N1CCC[C@H]1C(=O)N[C@@H](CO)C(=O)N[C@@H](CCCCN)C(N)=O)C(C)C) [Compound No. 1],0.005,> 10
Y[Aib]EGTFTSDYSIYLEKIAAQEFVNWLLAQKPSSGAPPPSK-NH2 (N-terminus assumed; SMILES CC[C@H](C)[C@H](NC(=O)[C@H](CCCCN)NC(=O)[C@H](CCC(=O)O)NC(=O)[C@H](CC(C)C)NC(=O)[C@H](Cc1ccc(O)cc1)NC(=O)[C@@H](NC(=O)[C@H](CO)NC(=O)[C@H](Cc1ccc(O)cc1)NC(=O)[C@H](CC(=O)O)NC(=O)[C@H](CO)NC(=O)[C@@H](NC(=O)[C@H](Cc1ccccc1)NC(=O)[C@@H](NC(=O)CNC(=O)[C@H](CCC(=O)O)NC(=O)C(C)(C)NC(=O)[C@@H](N)Cc1ccc(O)cc1)[C@@H](C)O)[C@@H](C)O)[C@@H](C)CC)C(=O)N[C@@H](C)C(=O)N[C@@H](C)C(=O)N[C@@H](CCC(N)=O)C(=O)N[C@@H](CCC(=O)O)C(=O)N[C@@H](Cc1ccccc1)C(=O)N[C@H](C(=O)N[C@@H](CC(N)=O)C(=O)N[C@@H](Cc1c[nH]c2ccccc12)C(=O)N[C@@H](CC(C)C)C(=O)N[C@@H](CC(C)C)C(=O)N[C@@H](C)C(=O)N[C@@H](CCC(N)=O)C(=O)N[C@@H](CCCCN)C(=O)N1CCC[C@H]1C(=O)N[C@@H](CO)C(=O)N[C@@H](CO)C(=O)NCC(=O)N[C@@H](C)C(=O)N1CCC[C@H]1C(=O)N1CCC[C@H]1C(=O)N1CCC[C@H]1C(=O)N[C@@H](CO)C(=O)N[C@@H](CCCCN)C(N)=O)C(C)C) [Compound No. 24],0.083,0.008
Y[Aib]EGTFTSDYSIYLDKEAAKEFVNWLLAGGPSSGAPPPSK-NH2 (N-terminus assumed; SMILES CC[C@H](C)[C@H](NC(=O)[C@H](CO)NC(=O)[C@H](Cc1ccc(O)cc1)NC(=O)[C@H](CC(=O)O)NC(=O)[C@H](CO)NC(=O)[C@@H](NC(=O)[C@H](Cc1ccccc1)NC(=O)[C@@H](NC(=O)CNC(=O)[C@H](CCC(=O)O)NC(=O)C(C)(C)NC(=O)[C@@H](N)Cc1ccc(O)cc1)[C@@H](C)O)[C@@H](C)O)C(=O)N[C@@H](Cc1ccc(O)cc1)C(=O)N[C@@H](CC(C)C)C(=O)N[C@@H](CC(=O)O)C(=O)N[C@@H](CCCCN)C(=O)N[C@@H](CCC(=O)O)C(=O)N[C@@H](C)C(=O)N[C@@H](C)C(=O)N[C@@H](CCCCN)C(=O)N[C@@H](CCC(=O)O)C(=O)N[C@@H](Cc1ccccc1)C(=O)N[C@H](C(=O)N[C@@H](CC(N)=O)C(=O)N[C@@H](Cc1c[nH]c2ccccc12)C(=O)N[C@@H](CC(C)C)C(=O)N[C@@H](CC(C)C)C(=O)N[C@@H](C)C(=O)NCC(=O)NCC(=O)N1CCC[C@H]1C(=O)N[C@@H](CO)C(=O)N[C@@H](CO)C(=O)NCC(=O)N[C@@H](C)C(=O)N1CCC[C@H]1C(=O)N1CCC[C@H]1C(=O)N1CCC[C@H]1C(=O)N[C@@H](CO)C(=O)N[C@@H](CCCCN)C(N)=O)C(C)C) [Compound No. 19],0.024,0.02
Y[Aib]EGTFTSDYSIYLEKEAAKEFVNWLLAQKPSSGAPPPSK-NH2 (N-terminus assumed; SMILES CC[C@H](C)[C@H](NC(=O)[C@H](CO)NC(=O)[C@H](Cc1ccc(O)cc1)NC(=O)[C@H](CC(=O)O)NC(=O)[C@H](CO)NC(=O)[C@@H](NC(=O)[C@H](Cc1ccccc1)NC(=O)[C@@H](NC(=O)CNC(=O)[C@H](CCC(=O)O)NC(=O)C(C)(C)NC(=O)[C@@H](N)Cc1ccc(O)cc1)[C@@H](C)O)[C@@H](C)O)C(=O)N[C@@H](Cc1ccc(O)cc1)C(=O)N[C@@H](CC(C)C)C(=O)N[C@@H](CCC(=O)O)C(=O)N[C@@H](CCCCN)C(=O)N[C@@H](CCC(=O)O)C(=O)N[C@@H](C)C(=O)N[C@@H](C)C(=O)N[C@@H](CCCCN)C(=O)N[C@@H](CCC(=O)O)C(=O)N[C@@H](Cc1ccccc1)C(=O)N[C@H](C(=O)N[C@@H](CC(N)=O)C(=O)N[C@@H](Cc1c[nH]c2ccccc12)C(=O)N[C@@H](CC(C)C)C(=O)N[C@@H](CC(C)C)C(=O)N[C@@H](C)C(=O)N[C@@H](CCC(N)=O)C(=O)N[C@@H](CCCCN)C(=O)N1CCC[C@H]1C(=O)N[C@@H](CO)C(=O)N[C@@H](CO)C(=O)NCC(=O)N[C@@H](C)C(=O)N1CCC[C@H]1C(=O)N1CCC[C@H]1C(=O)N1CCC[C@H]1C(=O)N[C@@H](CO)C(=O)N[C@@H](CCCCN)C(N)=O)C(C)C) [Compound No. 23],0.059,0.02
